Laboratory results as given in publication PMC9616523 (2022).

Experiments:
[1] = molecular target: Avaren‐Fc expressed in glycoengineered ΔXylT/ΔFucT N. benthamiana (AvFc^ΔXF) ( | human); assay: SPR
[2] = molecular target: Avaren‐Fc expressed in wild‐type N. benthamiana (AvFc^WT) ( | human); assay: SPR

B1: mouse FcγRIV (receptor)
chain: GLQKAVVNLDPKWVRVLEEDSVTLRCQGTFSPEDNSIKWFHNESLIPHQDANYVIQSARVKDSGMYRCQTALSTISDPVQLEVHMGWLLLQTTKWLFQEGDPIHLRCHSWQNRPVRKVTYLQNGKGKKYFHENSELLIPKATHNDSGSYFCRGLIGHNNKSSASFRISLGDPGSPSMFPPWHQ
[1]
  Kd: 457 nM
[2]
  Kd: 2530 nM

B2: human FcγRI (receptor)
chain: QVDTTKAVITLQPPWVSVFQEETVTLHCEVLHLPGSSSTQWFLNGTATQTSTPSYRITSASVNDSGEYRCQRGLSGRSDPIQLEIHRGWLLLQVSSRVFTEGEPLALRCHAWKDKLVYNVLYYRNGKAFKFFHWNSNLTILKTNISHNGTYHCSGMGKHRYTSAGISVTVKELFPAPVLNASVTSPLLEGNLVTLSCETKLLLQRPGLQLYFSFYMGSKTLRGRNTSSEYQILTARREDSGLYWCEAATEDGNVLKRSPELELQVLGLQLPTPVWFH
[1]
  Kd: 4.04 nM
[2]
  Kd: 7.78 nM
